From the supplement of paper PMC10567573

B1: RPS21 (parent)
chain: AEVSWEPGRREGCDICAGKAGCPI
B2: MTMR15 (parent)
chain: FSPDFTLRNTLKSTSEDSLVKQEC

Variants of: B1
Experiment: protein stability index of a GFP-peptide fusion (GPS, HEK-293T) (PSI 1-6); higher = more stable
Details: c terminus: a fixed tail appended
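Note: lentivirally expressed fusions sorted by FACS into six bins by GFP to DsRed ratio, PSI derived from sequencing read proportions per bin multiplied by bin number.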

Protein stability index: each site, then its substitutions
P7: C 2.69 | V 2.23 | F 2.21 | I 2.97 | Y 2.9 | S 2.77 | R 2.53 | Q 2.6 | E 4 | H 3.92
A1: S 2.71 | H 2.65 | G 3.57 | E 3.49 | Y 2.76 | C 2.9 | P 3.8 | D 3.94 | K 2.67 | R 3.51 | M 3.37 | F 1.94 | V 1.36
G8: W 2.01 | Y 1.74 | K 3.03 | C 3.67 | R 2.77 | H 2.54 | P 3.24 | N 3.41 | T 2.72 | I 2.78 | F 2.46 | Q 3.99 | M 2.59
S4: E 4.2 | D 3.41 | N 4.34 | W 2.79 | L 3.81 | T 2.54 | G 3.64 | F 2.45 | V 3.23 | C 3.24 | K 3.77 | M 1.58 | Y 2.92 | A 4.39
V3: C 3.78 | S 3.34 | M 1.9 | T 3.66 | W 3.27 | D 4 | E 4.58 | Y 3.54 | P 3.87 | G 4 | F 2.68 | R 3.01 | Q 3.17 | H 4.16 | I 2.23 | A 4.16 | K 4
C13: D 4.06 | R 4.04 | A 2.49 | T 4.38 | V 5.29 | F 3.97 | Y 3.84 | E 4.21 | H 4.27 | M 4.01 | G 3.88
E6: P 3 | G 2.36 | N 3.49 | T 2.79 | W 1.56 | V 2.66 | Q 2.78 | F 2.14 | I 2 | H 5.82 | R 3.04 | C 2.23 | Y 1.76 | M 2.6
D14: K 3.66 | M 2.18 | I 3.65 | N 2.35 | A 2.13 | H 2.5 | V 3.22
G12: T 3.67 | K 2.5 | E 3.86 | M 4.41 | V 2.63 | I 2.52 | Q 2.45 | C 3.29 | W 4.38 | N 3.07 | P 3.21 | D 4.16
W5: S 4.06 | T 4.04 | I 3.7 | P 5.67 | C 4.24 | D 4.85 | E 4.64 | K 4.84 | M 3.06 | L 3.12 | F 3.53 | V 4.44 | R 3.04 | Q 4.19 | Y 2.91
E11: N 2.55 | W 2.13 | L 2.46 | D 3.37 | G 1.99 | S 2.96 | K 2.6 | P 2.92 | T 2.87 | F 4.96 | A 1.95 | I 2.56 | Y 2.69 | C 3.22 | H 3.53
E2: Y 2.68 | D 3.79 | T 2.84 | H 2.02 | Q 2.36 | N 3.51 | G 3.38 | L 3.09 | S 2.94 | K 1.92 | F 1.23 | M 2.83 | R 1.99 | C 2.91
R10: K 3.32 | E 2.81 | V 2.69 | P 1.9 | I 2.91 | C 3.8 | A 3.49 | Q 3.09 | T 3.2 | L 2.84 | S 3.14 | Y 4.13 | H 4.11 | G 2.52 | N 3.47 | F 2.46
R9: Q 3.75 | T 3.67 | A 3.95 | L 3.49 | Y 3.1 | P 3.26 | F 3.89 | N 3.35 | M 3.02 | D 4.04 | I 3.14 | W 2.67

Variants of: B2
Experiment: as above
Details: c terminus: a fixed tail appended

Protein stability index, by site and new letter:
E23: F 2.51 | M 1.88 | L 1.77 | T 1.75 | P 2.04 | Q 2.3 | W 2.59 | K 1.61 | S 2.27 | D 1.52 | G 2.26 | R 2.42 | H 1.95 | C 2.49 | Y 1.84 | I 1.72 | V 1.94 | N 1.58 | A 2.87
S18: M 2.37 | I 3.61 | K 2.17 | Y 2.41 | N 1.57 | L 2.48 | P 2.05 | D 1.76 | W 1.75 | C 1.79 | Q 2.01 | H 1.92 | E 2.02 | T 2.21 | R 2.3 | A 1.75 | F 1.87 | V 1.84 | G 1.76
V20: S 2.04 | W 2.12 | A 2.09 | I 2.19 | M 2.29 | T 2.01 | L 2.08 | P 2.44 | Y 2 | H 2.19 | G 1.78 | Q 2.06 | K 2.46 | D 2.08 | F 3.85 | R 2.21 | N 2.2 | E 2.12 | C 1.74
K21: M 2.86 | W 2.4 | D 2.23 | R 3.02 | P 1.86 | T 2.1 | E 2.52 | I 2.21 | F 2.06 | A 2.81 | S 1.9 | H 2.83 | C 2.69 | N 2.94 | G 2.15 | Q 2.33 | V 2 | Y 2.62 | L 2.04
L19: M 2.46 | Q 3.03 | P 1.96 | F 2.14 | T 2.56 | E 2.1 | Y 2.24 | N 2.2 | S 1.97 | V 1.66 | C 2.15 | D 2.37 | G 2 | R 2.15 | A 1.7 | I 2.5 | K 1.85 | H 2.32 | W 1.69
Q22: L 1.88 | R 1.72 | M 1.65 | V 2 | Y 2.39 | I 2.06 | E 2.15 | H 1.91 | P 1.67 | F 2.65 | T 2.42 | A 1.56 | S 1.86 | C 2.06 | N 2.02 | K 1.62 | W 2.08 | D 1.92 | G 2.31
D17: Q 2.37 | S 1.45 | M 2.07 | R 1.61 | E 2.12 | W 2.6 | L 2.36 | K 1.69 | F 2.8 | I 2.58 | P 2.08 | N 1.8 | H 2.34 | Y 2.11 | V 2.06 | C 1.47 | G 2.03 | T 2.22
C24: N 2.16 | G 2.39 | P 2.75 | M 2.74 | Q 2.87 | S 1.85 | D 2.59 | H 1.85 | V 2.03 | T 1.98 | A 2.03 | K 1.4 | I 1.67 | E 1.69 | R 2.34 | W 2.18 | L 2.03 | F 2.63 | Y 3.07
